Assay results reported in publication PMC12847820, “Molecular characterisation of the Bacillus subtilis SpbK antiphage defence system” (Nature Communications, 2025).

Legend:
[1] = biological target: MBP-SpbK (full-length SpbK as a maltose-binding protein fusion) (Bacillus subtilis); experiment: mass photometry + SEC-MALS; MBP-SpbK wild type and mutants in solution; 10 mM HEPES pH 7.5, 150 mM NaCl; Superdex 200 5/150 Increase for SEC-MALS; self-association
[2] = biological target: MBP-SpbK D158R (Bacillus subtilis); experiment: as above
[3] = biological target: MBP-SpbK G194R (Bacillus subtilis); experiment: as above
[4] = biological target: the molecule itself; experiment: mass photometry; YonE in solution; 10 mM HEPES pH 7.5, 150 mM NaCl; self-association

MBP-SpbK (full-length SpbK as a maltose-binding protein fusion) (natural protein)
stoichiometry N [1]: 2

MBP-SpbK D158R (natural protein)
stoichiometry N [2]: 2

MBP-SpbK G194R (natural protein)
stoichiometry N [3]: 2

B1: YonE (residues 46-506), portal protein of phage SPβ (natural protein, Bacillus subtilis phage SPβ, UniProt O31953 46-506, looked up)
chain: EAEQLKNYFSNPDEFQEEIEDLAQYFYISTAEIHQLFELIEALPTLNYKIDSFNKVKSSDKHISLLNKSLHKVKHKRLTRDLLKQVATAGTLVGIWLGDAKSPYPFIFDEIKYVFPSFRRNGDWVCVVDMELFTKYKDDQRNELLKSLSPYIKQSDYENFMKDREKYRFKELPQERTFPLRTGTLKRNQGLGTSWVTPGLYDVLHKKKLKDVERSIANKIINAVAVLTIGTDKGNGEYTNMKLPKAVKQKIHGGVKTALEKNQKDGVTVVSIPDFADINFPDVKADGLDGAKFDHINSDIQSAYGLSGSLLNGDGGNYATSSLNLDTFYKRIGVLMEDIEQEVYQKLFNLVLPAAQKDNYYMNYDKDKPLTLKEKMDILIKLNDKGWSIKHVVDNLAGVSWESYLEQTLYETEELKLQEKIRPYQTSYTFTGNEVGRPNEGNKNNDNTVKSATSNGNDNPI
notes: YonE, product of the SPβ gene yonE, portal protein; truncated construct lacking the first 45 residues, residues 46-506; Dodecamer by mass photometry and cryo-EM; printed theoretical mass of the dodecamer 665 kDa; also called wild-type YonE; YonE dodecamer; source: E. coli BL21 (DE3), autoinduction, purified (IMAC, SEC); copies: 12
stoichiometry N [4]: 12
